One block for each binder: values may come before it.
Key:
GST-BakΔTM [1] = biological target: T1, GST-BakΔTM (human, UniProt Q16611 1-186); assay: SPR
T1 sequence (looked up): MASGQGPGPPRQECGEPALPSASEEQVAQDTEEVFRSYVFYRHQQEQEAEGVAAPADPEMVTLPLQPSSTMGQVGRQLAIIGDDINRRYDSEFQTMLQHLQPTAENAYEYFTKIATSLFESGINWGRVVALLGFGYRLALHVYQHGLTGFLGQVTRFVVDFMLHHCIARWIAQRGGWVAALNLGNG

SEC = biological target: the molecule itself; assay: SEC
GST-BakΔTM [2] = biological target: T1, GST-BakΔTM; assay: SPR; remark: listed apart in the source
GST-BakΔTM R36A = biological target: T2, GST-BakΔTM R36A (human, UniProt Q16611 1-186, R36A); assay: SPR
T2 sequence (looked up): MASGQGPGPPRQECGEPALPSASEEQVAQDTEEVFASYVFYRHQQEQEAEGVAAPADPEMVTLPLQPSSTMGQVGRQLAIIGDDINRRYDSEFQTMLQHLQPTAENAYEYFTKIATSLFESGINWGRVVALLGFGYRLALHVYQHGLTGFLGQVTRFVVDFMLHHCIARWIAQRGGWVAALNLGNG

GST-Bak 93E = biological target: T3, GST-Bak 93E (human, UniProt Q16611 1-186, Bak 93E); assay: SPR
T3 sequence (looked up): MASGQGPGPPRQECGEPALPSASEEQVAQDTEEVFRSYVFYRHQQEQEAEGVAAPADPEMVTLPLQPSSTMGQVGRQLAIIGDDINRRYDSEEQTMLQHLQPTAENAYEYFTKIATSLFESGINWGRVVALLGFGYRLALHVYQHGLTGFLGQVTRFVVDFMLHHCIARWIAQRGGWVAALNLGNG

GST-Bak 114E = biological target: T4, GST-Bak 114E (human, UniProt Q16611 1-186, Bak 114E); assay: SPR
T4 sequence (looked up): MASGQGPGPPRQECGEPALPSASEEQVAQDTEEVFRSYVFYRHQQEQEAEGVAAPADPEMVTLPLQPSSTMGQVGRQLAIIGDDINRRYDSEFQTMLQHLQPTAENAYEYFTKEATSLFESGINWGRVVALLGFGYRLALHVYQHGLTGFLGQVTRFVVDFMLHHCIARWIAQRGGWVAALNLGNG

GST-Bak 93E/114E = biological target: T5, GST-Bak 93E/114E (human, UniProt Q16611 1-186, Bak 93E/114E (93E) | Bak 93E/114E (114E)); assay: SPR
T5 sequence (looked up): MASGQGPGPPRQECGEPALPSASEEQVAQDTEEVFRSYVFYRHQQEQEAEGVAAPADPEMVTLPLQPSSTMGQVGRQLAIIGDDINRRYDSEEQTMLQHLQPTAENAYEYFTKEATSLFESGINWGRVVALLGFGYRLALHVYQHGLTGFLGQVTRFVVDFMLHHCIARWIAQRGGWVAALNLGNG

B2: His6-Bak R36A (domain or fragment, human, UniProt Q16611 1-186, looked up)
chain: MASGQGPGPPRQECGEPALPSASEEQVAQDTEEVFASYVFYRHQQEQEAEGVAAPADPEMVTLPLQPSSTMGQVGRQLAIIGDDINRRYDSEFQTMLQHLQPTAENAYEYFTKIATSLFESGINWGRVVALLGFGYRLALHVYQHGLTGFLGQVTRFVVDFMLHHCIARWIAQRGGWVAALNLGNG
binding result (SEC): binds

B3: Noxa (full-length, S peptide and His6 tagged) (natural protein, human, UniProt Q13794-1 1-54, looked up)
chain: MPGKKARKNAQPSPARAPAELEVECATQLRRFGDKLNFRQKLLNLISKLFCSGT
Kd (GST-BakΔTM [2]): 24 nM
binding result (GST-BakΔTM R36A): binds
binding result (GST-Bak 93E): binds
binding result (GST-Bak 114E): binds
binding result (GST-Bak 93E/114E): binds

Further lines, results first:

binding result (GST-BakΔTM [1]): binds
B1: NoxaΔCT (domain or fragment, human, UniProt Q13794-1 1-40, looked up)
chain: MPGKKARKNAQPSPARAPAELEVECATQLRRFGDKLNFRQ

binding result (GST-BakΔTM [1]): binds
B4: tBid (domain or fragment, human, UniProt P55957 61-195, looked up)
chain: GNRSSHSRLGRIEADSESQEDIIRNIARHLAQVGDSMDRSIPPGLVNGLALQLRNTSRSEEDRNRDLATALEQLLQAYPRDMEKEKTMLVLALLLAKKVASHTPSLLRDVFHTTVNFINQNLRTYVRSLARNGMD
